Test results as given in patent US20110091994A1, “Methods for Screening Compounds for Treating and/or Preventing an Hepatitis C Virus Infection” (priority 2008, published 2011).
Where two headings read alike, the source gives them in different places.

Columns and labels:
[1] = system: HCV ORFs (Gal4-DB fusions); format: binding, HCV genotype 1b, isolate con1; settings: human protein listed by gene symbol; the value names the HCV protein it interacts with
[2] = target: T1, HCV ORFs (Gal4-DB fusions) (Hepatitis C virus genotype 1b, UniProt Q9WMX2); format: binding, HCV genotype 1b, isolate con1; settings: human protein as prey
T1 construct: expressed in transfected cells; host or cells: Saccharomyces cerevisiae MAV203 (IMAP1) / AH109 (IMAP2)

[3] = target: T2, HCV proteins (Hepatitis C virus genotype 1b, UniProt Q9WMX2); test: Validation by Y2H pairwise matrices; format: binding;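 further: yeast two-hybrid pairwise tests of interactions first found in Y2H screens of HCV bait proteins against human cDNA libraries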
T2 construct: expressed in transfected cells

[4] = validation of interaction with HCV protein NS3
[5] = validation of interaction with HCV protein CORE
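Wherever IMAP Y2H IMAP1 (number of IST) is given: yeast two-hybrid screens using HCV genotype 1b proteins fused to Gal4-DB as baits against prey cDNA libraries from human spleen and foetal brain, IMAP1 via transformation and IMAP2 via mating.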
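Wherever Interaction with viral protein is given: yeast two-hybrid screens using HCV genotype 1b proteins fused to Gal4-DB as baits against prey cDNA libraries from human spleen and foetal brain, IMAP1 via transformation and IMAP2 via mating.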

| Molecule | Interaction with viral protein [1] | IMAP Y2H IMAP1 (number of IST) ([2]; HCV protein NS3 as bait) | Y2H matrices [3, 4] | IMAP Y2H IMAP1 (number of IST) ([2]; HCV protein CORE as bait) | Y2H matrices [3, 5] |
| --- | --- | --- | --- | --- | --- |
| SSX2IP (protein, UniProt Q9Y2D8 1-614, looked up) Afadin- and …: MGDWMTVTDPGLSSESKTISQYTSETKMSPSSLYSQQVLCSSIPLSKNVHSFFSAFCTEDNIEQSISYLDQELTTFGFPSLYEESKGKETKRELNIVAVLNCMNELLVLQRKNLLAQENVETQNLKLGSDMDHLQSCYSKLKEQLETSRREMIGLQERDRQLQCKNRNLHQLLKNEKDEVQKLQNIIASRATQYNHDMKRKEREYNKLKERLHQLVMNKKDKKIAMDILNYVGRADGKRGSWRTGKTEARNEDEMYKILLNDYEYRQKQILMENAELKKVLQQMKKEMISLLSPQKKKPRERVDDSTGTVISDVEEDAGELSRESMWDLSCETVREQLTNSIRKQWRILKSHVEKLDNQVSKVHLEGFNDEDVISRQDHEQETEKLELEIQQCKEMIKTQQQLLQQQLATAYDDDTTSLLRDCYLLEEKERLKEEWSLFKEQKKNFERERRSFTEAAIRLGLERKAFEEERASWLKQQFLNMTTFDHQNSENVKLFSAFSGSSDWDNLIVHSRQPQKKPHSVSNGSPVCMSKLTKSLPASPSTSDFCQTRSCISEHSSINVLNITAEEIKPNQVGGECTNQKWSVASRPGSQEGCYSGCSLSYTNSHVEKDDLP | NS3 | 3 | + | – | – |
| PLSCR1 (protein, UniProt O15162 1-318, looked up) Phospholipid scramblase 1: MDKQNSQMNASHPETNLPVGYPPQYPPTAFQGPPGYSGYPGPQVSYPPPPAGHSGPGPAGFPVPNQPVYNQPVYNQPVGAAGVPWMPAPQPPLNCPPGLEYLSQIDQILIHQQIELLEVLTGFETNNKYEIKNSFGQRVYFAAEDTDCCTRNCCGPSRPFTLRIIDNMGQEVITLERPLRCSSCCCPCCLQEIEIQAPPGVPIGYVIQTWHPCLPKFTIQNEKREDVLKISGPCVVCSCCGDVDFEIKSLDEQCVVGKISKHWTGILREAFTDADNFGIQFPLDLDVKMKAVMIGACFLIDFMFFESTGSQEQKSGVW | CORE | – | – | 1 | + |
| TBC1D2B (protein, UniProt Q9UPU7 1-963, looked up) TBC1 domain family member 2B: MPGAGARAEEGGGGGEGAAQGAAAEPGAGPAREPARLCGYLQKLSGKGPLRGYRSRWFVFDARRCYLYYFKSPQDALPLGHLDIADACFSYQGPDEAAEPGTEPPAHFQVHSAGAVTVLKAPNRQLMTYWLQELQQKRWEYCNSLDMVKWDSRTSPTPGDFPKGLVARDNTDLIYPHPNASAEKARNVLAVETVPGELVGEQAANQPAPGHPNSINFYSLKQWGNELKNSMSSFRPGRGHNDSRRTVFYTNEEWELLDPTPKDLEESIVQEEKKKLTPEGNKGVTGSGFPFDFGRNPYKGKRPLKDIIGSYKNRHSSGDPSSEGTSGSGSVSIRKPASEMQLQVQSQQEELEQLKKDLSSQKELVRLLQQTVRSSQYDKYFTSSRLCEGVPKDTLELLHQKDDQILGLTSQLERFSLEKESLQQEVRTLKSKVGELNEQLGMLMETIQAKDEVIIKLSEGEGNGPPPTVAPSSPSVVPVARDQLELDRLKDNLQGYKTQNKFLNKEILELSALRRNAERRERDLMAKYSSLEAKLCQIESKYLILLQEMKTPVCSEDQGPTREVIAQLLEDALQVESQEQPEQAFVKPHLVSEYDIYGFRTVPEDDEEEKLVAKVRALDLKTLYLTENQEVSTGVKWENYFASTVNREMMCSPELKNLIRAGIPHEHRSKVWKWCVDRHTRKFKDNTEPGHFQTLLQKALEKQNPASKQIELDLLRTLPNNKHYSCPTSEGIQKLRNVLLAFSWRNPDIGYCQGLNRLVAVALLYLEQEDAFWCLVTIVEVFMPRDYYTKTLLGSQVDQRVFRDLMSEKLPRLHGHFEQYKVDYTLITFNWFLVVFVDSVVSDILFKIWDSFLYEGPKVIFRFALALFKYKEEEILKLQDSMSIFKYLRYFTRTILDARKLISISFGDLNPFPLRQIRNRRAYHLEKVRLELTELEAIREDFLRERDTSPDKGELVSDEEEDT | NS3 | 1 | + | – | – |
| THAP1 (protein, UniProt Q9NVV9 1-213, looked up) THAP domain-containing …: MVQSCSAYGCKNRYDKDKPVSFHKFPLTRPSLCKEWEAAVRRKNFKPTKYSSICSEHFTPDCFKRECNNKLLKENAVPTIFLCTEPHDKKEDLLEPQEQLPPPPLPPPVSQVDAAIGLLMPPLQTPVNLSVFCDHNYTVEDTMHQRKRIHQLEQQVEKLRKKLKTAQQRCRRQERQLEKLKEVVHFQKEKDDVSERGYVILPNDYFEIVEVPA | NS3 | 1 | + | – | – |
| TRIM23 (protein, UniProt P36406 1-574, looked up) E3 ubiquitin-protein ligase …: MATLVVNKLGAGVDSGRQGSRGTAVVKVLECGVCEDVFSLQGDKVPRLLLCGHTVCHDCLTRLPLHGRAIRCPFDRQVTDLGDSGVWGLKKNFALLELLERLQNGPIGQYGAAEESIGISGESIIRCDEDEAHLASVYCTVCATHLCSECSQVTHSTKTLAKHRRVPLADKPHEKTMCSQHQVHAIEFVCLEEGCQTSPLMCCVCKEYGKHQGHKHSVLEPEANQIRASILDMAHCIRTFTEEISDYSRKLVGIVQHIEGGEQIVEDGIGMAHTEHVPGTAENARSCIRAYFYDLHETLCRQEEMALSVVDAHVREKLIWLRQQQEDMTILLSEVSAACLHCEKTLQQDDCRVVLAKQEITRLLETLQKQQQQFTEVADHIQLDASIPVTFTKDNRVHIGPKMEIRVVTLGLDGAGKTTILFKLKQDEFMQPIPTIGFNVETVEYKNLKFTIWDVGGKHKLRPLWKHYYLNTQAVVFVVDSSHRDRISEAHSELAKLLTEKELRDALLLIFANKQDVAGALSVEEITELLSLHKLCCGRSWYIQGCDARSGMGLYEGLDWLSRQLVAAGVLDVA | NS3 | 5 | + | – | – |
| USHBP1 (protein, UniProt Q8N6Y0 1-703, looked up) Harmonin-binding protein …: MSARATRPRSRRGRHAPPGELDPVAESSEEVEAASGSSKPSFAPPPVSSGLEQLGPMEEVSGQGLGSRTDKKMDGGSGRELASAPEVPHKPAVEAHQAPEAALQYKETVPPGNGAPDVFQTLQHTLSSLEAAAAAWRHQPPSHSGPMEFEGTSEGGAGSLGKQEGAGSCQREAARLAERNAWLRLALSSREDELVRTQASLEAIRAEKETLQKEVQELQDSLLRLEPCPHLSHNQAGGSGSGSSSSEADREPWETQDSFSLAHPLLRRLRSHSSTQILGSLPNQPLSPEMHIMEAQMEQLRGSIEKLKCFNRLLSAVLQGYKGRCEGLSMQLGQREAEATALHLALQYSEHCEEAYRVLLALREADSGAGDEAPMSDLQAAEKEAWRLLAQEEAAMDAGAQQNPQPSPEGSSVDKPTPQEVAFQLRSYVQRLQERRSLMKILSEPGPTLAPMPTVPRAEAMVQAILGTQAGPALPRLEKTQIQQDLVAAREALADLMLRLQLVRREKRGLELREAALRALGPAHVLLLEQLRWERAELQAGGANSSGGHSSGGGSSGDEEEWYQGLPAVPGGTSGIDGGQVGRAWDPEKLAQELAASLTRTLDLQEQLQSLRRELEQVAQKGRARRSQSAELNRDLCKAHSALVLAFRGAHRKQEEQRRKLEQQMALMEAQQAEEVAVLEATARALGKPRPPLPPPQLGDTFL | NS3 | 1 | + | – | – |
| SLC31A2 (protein, UniProt O15432 1-143, looked up) Protein SLC31A2: MAMHFIFSDTAVLLFDFWSVHSPAGMALSVLVLLLLAVLYEGIKVGKAKLLNQVLVNLPTSISQQTIAETDGDSAGSDSFPVGRTHHRWYLCHFGQSLIHVIQVVIGYFIMLAVMSYNTWIFLGVVLGSAVGYYLAYPLLSTA | CORE | – | – | 1 | + |
| XAB2 (protein, UniProt Q9HCS7 1-855, looked up) Pre-mRNA-splicing factor SYF1: MVVMARLSRPERPDLVFEEEDLPYEEEIMRNQFSVKCWLRYIEFKQGAPKPRLNQLYERALKLLPCSYKLWYRYLKARRAQVKHRCVTDPAYEDVNNCHERAFVFMHKMPRLWLDYCQFLMDQGRVTHTRRTFDRALRALPITQHSRIWPLYLRFLRSHPLPETAVRGYRRFLKLSPESAEEYIEYLKSSDRLDEAAQRLATVVNDERFVSKAGKSNYQLWHELCDLISQNPDKVQSLNVDAIIRGGLTRFTDQLGKLWCSLADYYIRSGHFEKARDVYEEAIRTVMTVRDFTQVFDSYAQFEESMIAAKMETASELGREEEDDVDLELRLARFEQLISRRPLLLNSVLLRQNPHHVHEWHKRVALHQGRPREIINTYTEAVQTVDPFKATGKPHTLWVAFAKFYEDNGQLDDARVILEKATKVNFKQVDDLASVWCQCGELELRHENYDEALRLLRKATALPARRAEYFDGSEPVQNRVYKSLKVWSMLADLEESLGTFQSTKAVYDRILDLRIATPQIVINYAMFLEEHKYFEESFKAYERGISLFKWPNVSDIWSTYLTKFIARYGGRKLERARDLFEQALDGCPPKYAKTLYLLYAQLEEEWGLARHAMAVYERATRAVEPAQQYDMFNIYIKRAAEIYGVTHTRGIYQKAIEVLSDEHAREMCLRFADMECKLGEIDRARAIYSFCSQICDPRTTGAFWQTWKDFEVRHGNEDTIKEMLRIRRSVQATYNTQVNFMASQMLKVSGSATGTVSDLAPGQSGMDDMKLLEQRAEQLAAEAERDQPLRAQSKILFVRSDASREELAELAQQVNPEEIQLGEDEDEDEMDLEPNEVRLEQQSVPAAVFGSLKED | NS3 | 2 | + | – | – |
